We go through one molecule from patent publication US20250042956A1 (University of California, published 2025).

What all share (assay): IP-MS rep 1
The target of experiment [1] is T1, AT2G23380.1 CLF (Arabidopsis thaliana, UniProt P93831 1-902).
T1 construct: Endogenous protein found by mass spectrometry; also called CURLY LEAF
T1 sequence (looked up): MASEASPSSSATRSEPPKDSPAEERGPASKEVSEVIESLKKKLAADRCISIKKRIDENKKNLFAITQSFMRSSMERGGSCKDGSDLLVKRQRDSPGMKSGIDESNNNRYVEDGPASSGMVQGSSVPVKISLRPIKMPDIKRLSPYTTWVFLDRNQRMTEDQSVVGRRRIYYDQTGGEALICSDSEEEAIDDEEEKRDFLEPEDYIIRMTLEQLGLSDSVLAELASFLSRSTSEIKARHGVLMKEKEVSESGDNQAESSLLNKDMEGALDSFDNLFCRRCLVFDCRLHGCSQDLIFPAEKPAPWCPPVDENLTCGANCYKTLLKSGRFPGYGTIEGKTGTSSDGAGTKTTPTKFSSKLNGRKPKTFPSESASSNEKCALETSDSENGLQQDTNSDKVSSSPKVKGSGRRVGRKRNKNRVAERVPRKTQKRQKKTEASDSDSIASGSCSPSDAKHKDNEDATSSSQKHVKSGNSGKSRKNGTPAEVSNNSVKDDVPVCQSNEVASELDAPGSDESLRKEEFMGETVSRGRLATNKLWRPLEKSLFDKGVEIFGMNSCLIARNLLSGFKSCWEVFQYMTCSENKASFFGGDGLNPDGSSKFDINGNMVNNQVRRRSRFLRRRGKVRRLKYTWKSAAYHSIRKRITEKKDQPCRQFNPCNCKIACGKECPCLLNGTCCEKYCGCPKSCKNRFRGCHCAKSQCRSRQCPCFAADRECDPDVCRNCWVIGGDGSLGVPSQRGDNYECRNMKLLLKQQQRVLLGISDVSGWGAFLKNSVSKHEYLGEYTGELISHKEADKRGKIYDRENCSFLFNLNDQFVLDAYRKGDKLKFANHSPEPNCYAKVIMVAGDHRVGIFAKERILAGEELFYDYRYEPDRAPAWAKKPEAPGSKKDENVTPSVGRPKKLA
A digest of the protocol: (§1)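 Peptide counts for co-purified proteins come from mass spectrometry of proteins pulled down from Arabidopsis floral buds with anti-FLAG magnetic beads. Ten grams of unopened buds from wild-type and FLAG-tagged transgenic lines were ground in liquid nitrogen and homogenised in 25 mL IP buffer. Lysates were held with 250 μL anti-FLAG M2 magnetic beads at 4° C for 2 hours, and bound proteins were eluted in TBS with 250 μg/mL 3×FLAG peptides.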

Experiment [2] addresses T2, AT3G20740.1 FIE (Arabidopsis thaliana, UniProt Q9LT47 1-369).
T2 construct: Endogenous protein found by mass spectrometry; also called FERTILIZATION INDEPENDENT ENDOSPERM
T2 sequence (looked up): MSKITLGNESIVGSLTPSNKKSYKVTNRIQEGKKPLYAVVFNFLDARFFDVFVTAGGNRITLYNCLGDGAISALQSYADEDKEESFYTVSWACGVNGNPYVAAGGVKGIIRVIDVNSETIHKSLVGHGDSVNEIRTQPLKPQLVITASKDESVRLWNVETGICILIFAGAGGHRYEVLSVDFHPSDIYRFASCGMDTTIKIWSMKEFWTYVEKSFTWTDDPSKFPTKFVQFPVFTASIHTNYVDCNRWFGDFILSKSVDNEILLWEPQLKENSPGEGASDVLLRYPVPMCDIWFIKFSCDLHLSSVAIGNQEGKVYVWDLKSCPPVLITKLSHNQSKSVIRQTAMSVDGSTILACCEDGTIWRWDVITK
The gist of the method:
as §1

Experiment [3] addresses T3, AT1G49950.3 TRB1 (Arabidopsis thaliana, UniProt Q8VWK4 1-300, limits assumed).
T3 construct: Endogenous protein found by mass spectrometry
T3 sequence: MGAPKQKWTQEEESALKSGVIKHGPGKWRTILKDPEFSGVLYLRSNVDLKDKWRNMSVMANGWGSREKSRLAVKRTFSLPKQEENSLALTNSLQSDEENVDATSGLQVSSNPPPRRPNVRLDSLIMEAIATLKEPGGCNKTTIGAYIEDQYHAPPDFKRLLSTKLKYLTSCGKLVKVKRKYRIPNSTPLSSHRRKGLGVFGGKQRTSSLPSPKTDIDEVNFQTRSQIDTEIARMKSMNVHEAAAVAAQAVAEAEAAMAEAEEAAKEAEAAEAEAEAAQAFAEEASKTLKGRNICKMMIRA
A digest of the protocol: as §1

Experiment [4] deals with T4, AT5G08450.1 HDC1 (Arabidopsis thaliana).
T4 construct: Endogenous protein found by mass spectrometry
A digest of the protocol: as §1

B1: TRBIP2 (bait of the TRBIP2 IP-MS) (other, not shown: small tags and cut ends)
chain: MATNACLESDSLLPPRKRLLAGFKNQNSRISNESPSPPFASSSSSTTTSNGSSASAVVHTHHLDHLLNDQTRSPEELAQASKATAALAVKVAKAARATANEKAIIASKAVAAAKNALELFASFPAAETVSCKEPRLIRAINNSPRVLTDCSGHRNKKQKTLTSTMNDGNDVAGVVDSDDGTRVNGKLLLCDNTLKEKTEEESSSLGKRRGRVKLPLSMCAYKDQENGITLEENNLSVSKSEGYNGGVAQVIERPSWKCQDLKSPECVKQNKVVRS
notes: tag and its position not described; also called TRBIP2-1; TRBIP2-2
For the molecule B1, the IP-MS count in experiment [1] amounted to 0; in experiment [2] it was 1; in experiment [3], 26; in experiment [4], 2.
